Measurements taken from patent publication US20110319869A1 (US Dept. of Health and Human Services, published 2011).
Where two headings read alike, the source gives them in different places. Each block holds one molecule with its values, some of them ahead of it.

Assays:
HLA-A2 molecule [1] = molecular target: T1, HLA-A2 molecule (human); assay: T2 cell binding assay: flow cytometry of surface HLA-A2 with anti-HLA-A2 mAb; negative control
T1 construct: also called HLA-A2 on T2 cells (174CEM-T2; T2A2 cells)

HLA-A2 molecule [2] = molecular target: T1, HLA-A2 molecule; assay: T2 cell binding assay: flow cytometry of surface HLA-A2 with anti-HLA-A2 mAb after incubation with peptide (50 µg/ml)
Description: In this assay, increased stability (accumulation) of HLA-A2 molecules on the surface of T2 cells as a consequence of peptide binding is measured by increased binding of antibody directed against HLA-A2 molecule. Briefly, 1×10⁶ cells in serum-free Iscove's modified Dulbecco's complete medium were incubated with peptides at a concentration of 50 μg/ml in 24-well culture plates at 37° C. in 5% CO₂. Flow cytometry for peptide binding was performed using T2 cells and single-color analysis. After cells were washed three times in DPBS, as described above, they were incubated for 1 h with a 1:100 dilution of HLA-A2—specific MAb (One Lambda, Inc.) per 10⁶ cells. UPC-10 (Cappel/Organon Teknika) was used as isotype control. The cells were then washed three times and incubated with 1:100 dilution of FITC-labeled anti-mouse IgG (BD Biosciences). Analysis was conducted with the FACScan, as described above. Cells were maintained on ice during all cell preparation and staining. […]

HLA-A2 molecule [3] = molecular target: T1, HLA-A2 molecule; assay: T2 cell binding assay, flow cytometry with anti-HLA-A2 mAb
Description: (§1) In this assay, increased stability (accumulation) of HLA-A2 molecules on the surface of T2 cells as a consequence of peptide binding is measured by increased binding of antibody directed against HLA-A2 molecule. Briefly, 1×10⁶ cells in serum-free Iscove's modified Dulbecco's complete medium were incubated with peptides at a concentration of 50 μg/ml in 24-well culture plates at 37° C. in 5% CO₂. Flow cytometry for peptide binding was performed using T2 cells and single-color analysis. After cells were washed three times in DPBS, as described above, they were incubated for 1 h with a 1:100 dilution of HLA-A2—specific MAb (One Lambda, Inc.) per 10⁶ cells. UPC-10 (Cappel/Organon Teknika) was used as isotype control. The cells were then washed three times and incubated with 1:100 dilution of FITC-labeled anti-mouse IgG (BD Biosciences). Analysis was conducted with the FACScan, as described above. Cells were maintained on ice during all cell preparation and staining.
The primary amino acid sequence of human MUC-1 was analyzed for consensus motifs for novel HLA-A2 binding peptides.

HLA-A2 molecule [4] = molecular target: T1, HLA-A2 molecule; assay: T2 cell binding assay: flow cytometry of surface HLA-A2 with anti-HLA-A2 mAb after incubation with peptide (50 µg/ml); remark: listed apart in the source
Description: as §1

Molecule: CEA CAP-7 (HLA-A3 binding peptide)
- T2 binding (relative fluorescence) (relative fluorescence values) (HLA-A2 molecule [1]): 200

B1: MUC-1 peptide P-94, WGQDVTSVPV (peptide)
peptide: WGQDVTSVPV
- T2 binding (relative fluorescence) (HLA-A2 molecule [2]): 591 relative fluorescence

B3: MUC-1 peptide P-92 (native), ATWGQDVTSV (peptide)
peptide: ATWGQDVTSV
notes: Synthetic 10-mer from the non-VNTR region of MUC-1
- T2 binding (relative fluorescence) (HLA-A2 molecule [2]): 740 relative fluorescence
- T2 binding (relative fluorescence) (HLA-A2 molecule [4]): 510 relative fluorescence values

B4: MUC-1 agonist peptide P-93L, ALWGQDVTSV (peptide)
peptide: ALWGQDVTSV
notes: also called L-93; MUC-1 peptide
- T2 binding (relative fluorescence) (HLA-A2 molecule [4]): 821 relative fluorescence values

B10: MUC-1 peptide P-4, GTQSPFFLLL (peptide)
peptide: GTQSPFFLLL
- T2 binding (relative fluorescence) (HLA-A2 molecule [2]): 467 relative fluorescence

B12: MUC-1 peptide P-1069, LQRDISEMFL (peptide)
peptide: LQRDISEMFL
- T2 binding (relative fluorescence) (HLA-A2 molecule [2]): 433 relative fluorescence

B13: MUC-1 peptide P-1105, LAFREGTINV (peptide)
peptide: LAFREGTINV
- T2 binding (relative fluorescence) (HLA-A2 molecule [2]): 461 relative fluorescence

B16: MUC-1 peptide P-1108, REGTINVHDV (peptide)
peptide: REGTINVHDV
- T2 binding (relative fluorescence) (HLA-A2 molecule [2]): 482 relative fluorescence

B17: MUC-1 peptide P-1104, TLASHSTKTD (peptide)
peptide: TLASHSTKTD
- T2 binding (relative fluorescence) (HLA-A2 molecule [2]): 442 relative fluorescence

Other lines, results leading:

- binding result (HLA-A2 molecule [3]): no binding (tested: 50 µg/ml peptide)
B2: NCA peptide, YRPGENLNL (peptide)
peptide: YRPGENLNL

- T2 binding (relative fluorescence) (HLA-A2 molecule [4]): 823 relative fluorescence values
B5: MUC-1 peptide analogue P-93I (peptide)
peptide: AIWGQDVTSV
notes: also called I-93

- T2 binding (relative fluorescence) (HLA-A2 molecule [4]): 325 relative fluorescence values
B6: MUC-1 peptide analogue M-93/L-101 (peptide)
peptide: AMWGQDVTSL

- T2 binding (relative fluorescence) (HLA-A2 molecule [4]): 736 relative fluorescence values
B7: MUC-1 peptide analogue L-93/L-101 (peptide)
peptide: ALWGQDVTSL

- T2 binding (relative fluorescence) (HLA-A2 molecule [4]): 280 relative fluorescence values
B8: MUC-1 peptide analogue I-93/L-101 (peptide)
peptide: AIWGQDVTSL

- T2 binding (relative fluorescence) (HLA-A2 molecule [4]): 723 relative fluorescence values
B9: MUC-1 peptide analogue M-93 (peptide)
peptide: AMWGQDVTSV

- T2 binding (relative fluorescence) (HLA-A2 molecule [2]): 369 relative fluorescence
B11: MUC-1 peptide P-1169, VLVALAIVYL (peptide)
peptide: VLVALAIVYL

- T2 binding (relative fluorescence) (HLA-A2 molecule [2]): 422 relative fluorescence
B14: MUC-1 peptide P-1135, TISDVSVSDV (peptide)
peptide: TISDVSVSDV

- T2 binding (relative fluorescence) (HLA-A2 molecule [2]): 431 relative fluorescence
B15: MUC-1 peptide P-1162, ALLVLVCVLV (peptide)
peptide: ALLVLVCVLV
